Data on 2 molecules can be found in patent US20060084789A1, “Immunotherapeutic and immunoprphylactic reagents” (priority 2002, published 2006).

The subject of assay [1] is RGP-specific TCL. Briefly: TCL proliferation assay (3H-thymidine incorporation, stimulation index). Type of assay: cell-based, human. To be noted: for Proliferative response, stimulation index: peptides 10 μg/ml; for TCL that responded, response to allergen or peptide: allergen responsiveness considered as response to allergen or peptide; for TCL tested that responded to purified allergen: ten of fourteen TCL (Lol p 1), nine of fifteen TCL (Lol p 5), positive if SI ≥2.5. How it is done: Generation of Short-Term RGP-Specific TCL
PBMC were cultured in 24-well plates (Costar, Mass., USA) at 2.5×10^6 cells/well with RGP extract at a concentration of 25 or 50 μg/ml in RPMI 1640 medium (Gibco BRL, NY, USA) supplemented with 2 mM GlutaMAX I (Gibco BRL), 0.05 mg/ml gentamicin (David Bull Laboratories, Mulgrave, Victoria, Australia) and 5% heat-inactivated hunan AB^+ serum (Sigma, Mo., USA) for 7 days at 37° C. in a 5% CO2 humidified incubator. At day 7, cells were washed once and restimulated in 24-well plates at 5×10^5 cells/well width 25 or 50 μg/ml of RGP extract in the presence of 5×10^5 cells/well irradiated (3000 rads) autologous PBMC as a source of antigen presenting cells (APC). At day 2 following restimulation, 10 U/ml of Lymphocult T-LF (LC; Biotest, Germany) was added as a source of IL-2 and at day 4, 1 ml of culture medium was removed and replaced with fresh medium and 10 U/ml of LC. […] In all experiments T cells were rested for 6 to 7 days after the last addition of antigen and APC before testing.
T cells (5×10^4/well) were cultured in 96-well U bottom plates with either RGP extract at concentrations ranging from 25 to 200 μg/ml, purified Lol p 1 (0.12 to 2 μg/ml) or Lol p 5 (0.1 to 10 μg/ml), or Lol p 1 or Lol p 5 peptides (10 μg/ml), or medium alone (to determine background levels of proliferation), in the presence of washed autologous irradiated (3000 rads) PBMC (5×10^4/well). […] Cultures were incubated for 3 days, pulsed for the last 16 hours with ^3H-thymidine (1 μCi/well) and harvested onto glass fibre filters. ^3H-thymidine incorporation was measured by liquid scintillation spectroscopy and the mean counts per minute (cpm) for triplicate cultures was determined. Responses were considered positive if the stimulation index (SI, cpm of antigen-stimulated T cells divided by cpm of unstimulated T cells) was ≧2.5. Where several concentrations of allergen were tested (i.e., RGP, Lol p 1 and Lol p 5), values corresponding to the highest proliferation are shown.

The subject of assay [2] is oligoclonal house dust mite (HDM)- or low ammoniated latex (LAL)-reactive CD44^+ T cells. Briefly: Mitogenicity check with irrelevant-antigen T cells and irradiated autologous PBMC. It is filed as cell-based. As to conditions: culture with HDM- or LAL-reactive T cells and irradiated autologous PBMC; data not shown. From the text:
Mitogenicity of RGP, Lol p 1, Lol p 5 and peptides was excluded by culturing with oligoclonal house dust mite (HDM)- or low ammoniated latex (LAL)-reactive CD44^+ T cells in the presence of irradiated autologous PBMC, and toxicity was excluded by co-culture of antigens with HDM- or LAL-reactive T cells in the presence of IL-2 (data not shown).

B1: Lol p 1: Rye grass pollen allergen purified from crude RGP extracts by SDS-PAGE (protein)
chain: IAKVPPGPNITAEYGDKWLDAKSTWYGKPTGAGPKDNCGACGYKDVDKAPFNGMTGCGNTPIFKDGRGCGSCFEIKCTKPESCSGEAVTVTITDDNEEPIAPYHFDLSGHAFGSMAKKGEEQKLRASAGELELQFRRVKCKYPDGTKPTFHVEKASNPNYLAILVKYVDGDGDVVAVDIKEKGKDKWIELKESWGAVWRIDTPDKLTGPFTVRYTTEGGTKSEVEDVIPEGWKADTSYSAK
modifications: Lolium perenne
notes: Rye grass pollen allergen purified from crude RGP extracts by SDS-PAGE
B1: the “Proliferative response, stimulation index” value in assay [1] (Subject 1 TCL, Lol p 1 series (Table 3), RGP and Lol p 1 maximal response) stood at 5.9; in assay [1] (Subject 2 TCL, Lol p 1 series (Table 3), RGP and Lol p 1 maximal response) it was 3.0; in assay [1] (Subject 4 TCL, Lol p 1 series (Table 3), RGP and Lol p 1 maximal response), 2.9; in assay [1] (Subject 5 TCL, Lol p 1 series (Table 3), RGP and Lol p 1 maximal response), 2.5; in assay [1] (Subject 6 TCL, Lol p 1 series (Table 3), RGP and Lol p 1 maximal response), 4.0; in assay [1] (Subject 8 TCL, Lol p 5 series (Table 4), RGP and Lol p 5 maximal response), 4.3. Also, the “Proliferative response, stimulation index” value in assay [1] (Subject 11 TCL, Lol p 5 series (Table 4), RGP and Lol p 5 maximal response) is reported as 3.4; in assay [1] (Subject 15 TCL, Lol p 1 series (Table 3), RGP and Lol p 1 maximal response), 0.3; in assay [1] (Subject 19 TCL, Lol p 1 series (Table 3), RGP and Lol p 1 maximal response) it was 10.5; in assay [1] (Subject 27 TCL, Lol p 5 series (Table 4), RGP and Lol p 5 maximal response, † affinity purified Lol p 5), 3.8†; in assay [1] (Subject 38 TCL, Lol p 5 series (Table 4), RGP and Lol p 5 maximal response, * SDS-PAGE purified Lol p 5), 3.2*. The “TCL that responded, response to allergen or peptide” value in assay [1] is listed as 79%. The “TCL tested that responded to purified allergen” value in assay [1] is 71%. Besides, the Mitogenicity result in assay [2] is listed as “excluded”.

B2: Lol p 5: Rye grass pollen allergen purified from RGP extract by SDS-PAGE or affinity chromatography (mAb FMC A7) (protein)
chain: ADAGYTPAAAATPATPAATPAAAGGKATTDEQKLLEDVNAGFKAAVAAAANAPPADKFKIFEAAFSESSKGLLATSAAKAPGLIPKLDTAYDVAYKAAEGATPEAKYDAFVTALTEALRVIAGALEVHAVKPATEEVPAAKIPTGELQIVDKIDAAFKIAATAANAAPTNDKFTVFESAFNKALNECTGGAYETYKFIPSLEAAVKQAYAATVAAAPEVKYAVFEAALTKAITAMTQAQKAGKPAAAAATGAATVATGAATAAAGAATAAAGGYKA
With B2, in assay [1], the “TCL that responded, response to allergen or peptide” value was 91% and the “TCL tested that responded to purified allergen” value is on record as 60%. Besides, in assay [2], the Mitogenicity result is on record as “excluded”.
